Results on one molecule are retold here after patent publication US20150119342A1 (published 2015).

The target of experiment [1] is T1, human cIAP2 BIR3 domain with C-terminal 6xHis-tag (human, UniProt Q13489 237-349, limits assumed).
T1 construct: domain: BIR3
The experiment in a line: fluorescence polarization, saturation binding; 2 nM probe, protein 0 to 20 µM. The procedure:
(§1) After shaking (15 min) the plate was incubated for 3 hours at room temperature. […] All experiments were performed in black, flat-bottom 96-well microplates (Greiner bio-one).

Experiment [2] concerns the target T2, human cIAP1 BIR3 domain with C-terminal 6xHis-tag (human, UniProt Q13490 251-363, limits assumed).
T2 construct: domain: BIR3
Described as above. The procedure:
as §1

Where no end group is shown, it is not given here. [ ]: non-standard residue; d: D form. The star is where a group is joined. 5FAM = O=C1OC2(c3ccc(O)cc3Oc3cc(O)ccc32)c2ccc(C(=O)*)cc21; Abu = CC[C@H](N)C(=O)O

T2 sequence (Q13490 other isoform, or with tags, fused parts or gaps limits assumed): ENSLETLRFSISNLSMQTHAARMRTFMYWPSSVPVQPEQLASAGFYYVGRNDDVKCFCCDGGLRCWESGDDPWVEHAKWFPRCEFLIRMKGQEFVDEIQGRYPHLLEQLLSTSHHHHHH
T1 sequence (Q13489 other isoform, or with tags, fused parts or gaps limits assumed): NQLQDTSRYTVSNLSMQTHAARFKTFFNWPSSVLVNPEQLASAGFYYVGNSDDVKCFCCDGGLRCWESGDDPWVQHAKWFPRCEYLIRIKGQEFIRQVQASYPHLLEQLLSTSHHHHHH

B1: Fluorescent-labelled Smac peptide [AbuRPF-K(5-Fam)-NH2] (peptide)
peptide: [Abu]RPFK(5FAM)-NH2
modifications: N-terminus assumed
SMILES: CC[C@H](N)C(=O)N[C@@H](CCCNC(=N)N)C(=O)N1CCC[C@H]1C(=O)N[C@@H](Cc1ccccc1)C(=O)N[C@@H](CCCCNC(=O)c1ccc2c(c1)C(=O)OC21c2ccc(O)cc2Oc2cc(O)ccc21)C(N)=O
notes: Synthetic labelled probe used in the fluorescence polarization assays; also called FITC-SMAC; fluorescently-labelled Smac peptide
For B1, the Kd in experiment [1] is 23.6 nM; in experiment [2], 4.8 nM.
